Measurements reported in publication PMC6546747, “Wwp2 maintains cartilage homeostasis through regulation of Adamts5” (Nature Communications, 2019).

Biological target: T1, Wwp2 protein purified from transfected HEK293T cells (in vitro pull-down) (mouse, UniProt Q9DBH0 1-870)
T1 construct: Wwp2; plasmids were built from full-length cDNA NM_025830.3; source: HEK293T, transfected, purified (tagged protein magnetic purification kit)
Assay: pull-down; in vitro pull-down using His-tag (Dynabeads His-Tag Isolation and Pulldown); proteins purified from transfected HEK293T cells
Details: both partners purified

T1 sequence (Q9DBH0 whole entry): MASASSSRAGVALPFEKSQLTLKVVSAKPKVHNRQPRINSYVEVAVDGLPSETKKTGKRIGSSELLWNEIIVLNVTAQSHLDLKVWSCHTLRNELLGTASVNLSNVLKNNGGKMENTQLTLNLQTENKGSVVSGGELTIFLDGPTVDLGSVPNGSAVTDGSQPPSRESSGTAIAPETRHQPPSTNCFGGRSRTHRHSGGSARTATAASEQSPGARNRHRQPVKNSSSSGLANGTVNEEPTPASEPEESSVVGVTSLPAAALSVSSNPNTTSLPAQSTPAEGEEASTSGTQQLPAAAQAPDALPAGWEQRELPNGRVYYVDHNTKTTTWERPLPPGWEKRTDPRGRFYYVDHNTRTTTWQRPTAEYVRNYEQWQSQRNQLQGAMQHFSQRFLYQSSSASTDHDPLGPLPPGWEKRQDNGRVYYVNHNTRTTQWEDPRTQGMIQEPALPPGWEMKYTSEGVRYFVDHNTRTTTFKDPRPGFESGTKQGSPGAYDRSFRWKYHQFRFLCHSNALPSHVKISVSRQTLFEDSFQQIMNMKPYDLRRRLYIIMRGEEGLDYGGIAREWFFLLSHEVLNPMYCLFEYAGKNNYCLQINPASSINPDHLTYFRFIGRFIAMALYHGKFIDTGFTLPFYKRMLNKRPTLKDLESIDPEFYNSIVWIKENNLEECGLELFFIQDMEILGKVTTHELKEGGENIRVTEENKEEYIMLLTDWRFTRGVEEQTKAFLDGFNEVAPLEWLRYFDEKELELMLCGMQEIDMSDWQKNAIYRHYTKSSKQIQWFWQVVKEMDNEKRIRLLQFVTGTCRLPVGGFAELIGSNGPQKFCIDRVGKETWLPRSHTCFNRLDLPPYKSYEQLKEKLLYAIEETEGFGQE

B1: Runx2 protein purified from transfected HEK293T cells (in vitro pull-down) (natural protein, mouse, UniProt Q08775-5 1-528, looked up)
chain: MASNSLFSAVTPCQQSFFWDPSTSRRFSPPSSSLQPGKMSDVSPVVAAQQQQQQQQQQQQQQQQQQQQQQQQQQQQQEAAAAAAAAAAAAAAAAAAVPRLRPPHDNRTMVEIIADHPAELVRTDSPNFLCSVLPSHWRCNKTLPVAFKVVALGEVPDGTVVTVMAGNDENYSAELRNASAVMKNQVARFNDLRFVGRSGRGKSFTLTITVFTNPPQVATYHRAIKVTVDGPREPRRHRQKLDDSKPSLFSDRLSDLGRIPHPSMRVGVPPQNPRPSLNSAPSPFNPQGQSQITDPRQAQSSPPWSYDQSYPSYLSQMTSPSIHSTTPLSSTRGTGLPAITDVPRRISDDDTATSDFCLWPSSLSKKSQAGASELGPFSDPRQFPSISSLTESRFSNPRMHYPATFTYTPPVTSGMSLGMSATTHYHTYLPPPYPGSSQSQSGPFQTSSTPYLYYGTSSASYQFPMVPGGDRSPSRMVPPCTTTSNGSTLLNPNLPNQNDGVDADGSHSSSPTVLNSSGRMDESVWRPY
notes: Runx2; plasmids were built from full-length cDNA NM_001146038.2; source: HEK293T, transfected, purified (tagged protein magnetic purification kit)
B1: binds.
